Data as given in the nanobody polyreactivity screen of Harvey et al. (2022).

Test: yeast display, Sf9 membrane polyspecificity reagent, FACS + sequencing; frameworks hold sequencing errors
Outline: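 Galactose-induced (36–48 hours) yeast carrying a synthetic nanobody display library were exposed to 10% biotinylated, detergent-solubilized Sf9 membrane reagent at 4 °C for 1 hour. FACS followed streptavidin microbead enrichment, using low and high (top ~1%) gates for expression (anti-HA) and reagent binding (streptavidin). Colony PCR, MiSeq 2 × 250 sequencing and CDR-length filtering followed. Labels for polyreactivity reflect the gate of origin.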
For “QVQLVESGGGLVQAGGSLRLSCAASGRIFGLYAMGWYRQAPGKERELVAAISWSGGRTYYADSVKGRFTISRDNAKNNVYLQMNSLKPEDTAVYYCAARSYYRSQYGFDYWGQGTQVTVSS”, the “polyreactivity (PSR sort gate)” value was “high polyreactivity”. In the case of “QVQLVESGGGLVQAGGSLRLSCAASGRIFGLYAMGWYRQAPGKERELVAAITSSTGSTYYADSVKGRFTISRDNAKNTVYLQMNSLKPEDTAVYYCAARRYGRNWHYDYWGQGTQVTVSS”, the “polyreactivity (PSR sort gate)” value is reported as “high polyreactivity”. With “QVQLVESGGGLVQAGGSLRLSCAASGRIFGLYARGWSRQAPGKERELVAAYADSVKGRFTISRENAKNTVYLQMNSLKPEDTAVYYCAKGPLYAGYSIDLRDFNYWGQGTQVTVSS” the “polyreactivity (PSR sort gate)” value was “low polyreactivity”. For “QVQLVESGGGLVQAGGSLRLSCAASGRIFGNNAMGWYRQAPGKERELVAAITSGGSTNYADSVKGRFTISRDNAKNTVYLQMNSLKPEDTAVYYCAKRWVYKYRHYDYWGQGTQVTVSS”, the “polyreactivity (PSR sort gate)” value was “low polyreactivity”. With “QVQLVESGGGLVQAGGSLRLSCAASGRIFGNYAMGWYRQAPGKERELVAAITSGARTYYADSVKGRFTISRDNAKNTVYLQMNSLKPEDTAVYYCAAYHKSYSNRYDYWGQGTHVTVSS” the “polyreactivity (PSR sort gate)” value was “high polyreactivity”. With “QVQLVESGGGLVQAGGSLRLSCAASGRIFGPNAMGWYRQAPGKERELVASISYSGGSTYYADSVKGRFTISRDNAKNTVYLQMNSLKPEDTAVYYCAKGGYWRGYNYWGQGTQVTVSS” the “polyreactivity (PSR sort gate)” value was “low polyreactivity”. For “QVQLVESGGGLVQAGGSLRLSCAASGRIFGPYAMGWYRPAPGKERELVAVISLSGGRTYYADSVKGRFTISRDNAKNTVYLQMNSLKPEDTAVYYCAAARIYVGRRFDFWGQGTQVTVSS”, the “polyreactivity (PSR sort gate)” value was “high polyreactivity”. In the case of “QVQLVESGGGLVQAGGSLRLSCAASGRIFGPYAMGWYRQAPGKERELVAAISWSGGSTYYADSVKGRFTISRDNAKNTVYLQMNSLKPEDTAVYYCAARERRVYGDRFYKLDYWGQGTQVTVSS”, the “polyreactivity (PSR sort gate)” value is reported as “high polyreactivity”. With “QVQLVESGGGLVQAGGSLRLSCAASGRIFGPYTMGWYRQAPGKERELVAAISWSGGSTYYADSVKGRFTISRDNAKNTVYLQMNSLKPEDTAVYYCNADHPFPQYEGGSWGQGTQVTVSS” the “polyreactivity (PSR sort gate)” value was “low polyreactivity”. In the case of “QVQLVESGGGLVQAGGSLRLSCAASGRIFGPYTMGWYRQAPGKERELVARISRRGGSTYYADSVKGRFTISRDNAKNTVYLQMNSLKPEDTAVYYCARSQAVYDGWFAKFGYWGQGTQVTVSS”, the “polyreactivity (PSR sort gate)” value is reported as “low polyreactivity”. With “QVQLVESGGGLVQAGGSLRLSCAASGRIFGRNAMGWYRQAPGKERELVAAISSSGGRTYYADSVKGRFTISRDNAKNTVYLQMNSLKPEDTAVYYCAAVGSLYYYRYDYWGQGTQVTVSS” the “polyreactivity (PSR sort gate)” value was “high polyreactivity”. With “QVQLVESGGGLVQAGGSLRLSCAASGRIFGRNTMGWYRQAPGKERELVAVISFRGGSTYADSVKGRFTISRDNAKNTVYLQMNSLKPEDTAVYYCARTAYSTRPYRFDYWGQGTQVTVSS” the “polyreactivity (PSR sort gate)” value was “high polyreactivity”. With “QVQLVESGGGLVQAGGSLRLSCAASGRIFGRYAMGWYRQAPGKERELVAAISRRGGTTYYADSVKGRFTISRDNAKNTVYLQMNSLKPEDTAVYSSNADTYGYGFDYWGQGTQVTVSS” the “polyreactivity (PSR sort gate)” value was “high polyreactivity”. In the case of “QVQLVESGGGLVQAGGSLRLSCAASGRIFGRYAMGWYRQAPGKERELVASIRSRGGSTYYADSVKGRFTISRDNAKNTVYLQMNSLIPEDTAVYYCAKTVTSGYYYAGRYDYWGQGTQVTVSS”, the “polyreactivity (PSR sort gate)” value is reported as “high polyreactivity”. With “QVQLVESGGGLVQAGGSLRLSCAASGRIFGRYAMGWYRQAPGKERELVASISTGGGGTYYADSVKGRFTISRDNAKNTVYLQMNSLKPEDTAVYYCAKAWRGFWTKYDYWGQGTQVTVSS” the “polyreactivity (PSR sort gate)” value was “low polyreactivity”. In the case of “QVQLVESGGGLVQAGGSLRLSCAASGRIFGRYAMGWYRQAPGNERELVAAISSTGGRTYYADSVKGRFTISRDNAKNTVYLQMTSLKPEDTAVYYCAATYVHYPSMGYDYWGQGTQVTVSS”, the “polyreactivity (PSR sort gate)” value is reported as “high polyreactivity”. In the case of “QVQLVESGGGLVQAGGSLRLSCAASGRIFGRYTMGWYRQAPGKERELVAAISARGGSPNYADSVKGRFTISRDNAKNTVYLQLNSLIPEDTAVYYCNTVRVHGFPIDRIYDYWGQVTQVTVSS”, the “polyreactivity (PSR sort gate)” value is reported as “high polyreactivity”. In the case of “QVQLVESGGGLVQAGGSLRLSCAASGRIFGSYAMGSYRQAPGKERELVAAINWRGGSTFYADSVKGRFTISRDNAKNTVYLQMNSLKPEDTAVYYCARRGYRQSGDYWGQGTQVTVSS”, the “polyreactivity (PSR sort gate)” value is reported as “low polyreactivity”. With “QVQLVESGGGLVQAGGSLRLSCAASGRIFGSYAMGWYIQAPGTERELVAAINRRGGSTFYADSVKGRFTISRDNAKNSVYLQMNSLKPEDTAVYYCARRGYRQSGDYWGQGTQVTLSS” the “polyreactivity (PSR sort gate)” value was “low polyreactivity”. In the case of “QVQLVESGGGLVQAGGSLRLSCAASGRIFGSYAMGWYRQAPGKERELVAAINWRGGSTFYADSVKGRFTISRDNAKNTVYLQMNSLKPEDTAVYYCARRGYRQSGDYWGQGTEVTVSS”, the “polyreactivity (PSR sort gate)” value is reported as “low polyreactivity”. For “QVQLVESGGGLVQAGGSLRLSCAASGRIFGSYAMGWYRQAPGKERELVAAISGGGSTNYADSVKGRFTISRDNAKNTVYLQMNSLKPEDSAVYYCTADRGFAVIVLYGYWGQGTQVTVSS”, the “polyreactivity (PSR sort gate)” value was “low polyreactivity”. For “QVQLVESGGGLVQAGGSLRLSCAASGRIFGSYAMGWYRQAPGKERELVAAISRSGVSTYYADSVKGRFTISRDNAKNTVYLQMNSLKPEDTAVYYCAAYYRYASDYWGQGTQVTVSS”, the “polyreactivity (PSR sort gate)” value was “low polyreactivity”. With “QVQLVESGGGLVQAGGSLRLSCAASGRIFGSYAMGWYRQAPGKERELVAAISWRGTSTYYADSVKGRFTISRDNAKNTVYLQMNSLIPEDTAVYYCAARGLWPYDYWGQGSQVTVSS” the “polyreactivity (PSR sort gate)” value was “low polyreactivity”. With “QVQLVESGGGLVQAGGSLRLSCAASGRIFGSYAMGWYRQAPGKERELVATIRRSGGRTYYADSVKGRFTISRDNAKNTVYLQKTSLKPADTAVYYCAKDEWGNIRHERDYWGQGTQVTVSS” the “polyreactivity (PSR sort gate)” value was “low polyreactivity”. With “QVQLVESGGGLVQAGGSLRLSCAASGRIFGSYAMGWYRQAPGKERELVATITFGGGSTYYAESEKGRFTISRDNAKNTVYLQMNSLKPEDTAVYYCAADSGYLGIYGDEYSWGQGTQVTVSS” the “polyreactivity (PSR sort gate)” value was “low polyreactivity”. In the case of “QVQLVESGGGLVQAGGSLRLSCAASGRIFGSYTMGWYRQAPGKERELVAAISWSGGNTYYADSVKGRFTISRDNAKNTVYLLMNSQKPEDTAVYYCNALYYRPPKWYGYWGQGTQVTVSS”, the “polyreactivity (PSR sort gate)” value is reported as “high polyreactivity”. In the case of “QVQLVESGGGLVQAGGSLRLSCAASGRIFGTNAMGWYIQAPGKERELVADITSGGSTNYADSVKGRFTISRDNAKNTVYLQMNSLKPEDTAVYYCAADVIGDLRWYRDEYWGQGTQVTVSS”, the “polyreactivity (PSR sort gate)” value is reported as “low polyreactivity”. For “QVQLVESGGGLVQAGGSLRLSCAASGRIFGTNAMGWYRQAHGKERELVADITSGGSTNYADSVKGRFTISRDNAKNTVYLQMNSLKPEDTAVSYCAADVIGDLPWYRDEYWGQGTQVTVSS”, the “polyreactivity (PSR sort gate)” value was “low polyreactivity”. For “QVQLVESGGGLVQAGGSLRLSCAASGRIFGTYAMGWYRQAPGKERELVASISYSDGSTYADSVKGRFTISRDNAKNTVYLQMNSLKPEDTAVYYCAADVYYYAQSEDGYWGQGTQVTVSS”, the “polyreactivity (PSR sort gate)” value was “low polyreactivity”. With “QVQLVESGGGLVQAGGSLRLSCAASGRIFGVNAMGLYRQAPGKERELVAVISSGGSTYYADSVKGRFTISRDNAKNTVYLQMNSLKPEDTAVYYCNAVVGRWFPYNLSDYWGQGTQVTVSS” the “polyreactivity (PSR sort gate)” value was “low polyreactivity”. With “QVQLVESGGGLVQAGGSLRLSCAASGRIFGVYAMGRYRQAPGKERELVAGINGGDSTYYADSVKGRFTISRDNAKNTVYLQMNSLKAEDTAVYYCAAEADESGSNYDYWGQGTQVTVSS” the “polyreactivity (PSR sort gate)” value was “low polyreactivity”. For “QVQLVESGGGLVQAGGSLRLSCAASGRIFGVYAMGWYRQAPGKEREFVARISWHGGRTYYADSVKGRFTISRDNAKNTVYLQMNSLKPEDTAVYYCAADHGYPSRLDYWGQGTQVTVSS”, the “polyreactivity (PSR sort gate)” value was “high polyreactivity”. For “QVQLVESGGGLVQAGGSLRLSCAASGRIFGVYAMGWYRQAPGKERELVAAIDSSDASTYYADSVKGRFTISRDNAKNTVYLQMNSLKPEDTAVYYCAADNPAAVYGYDYWGQGTQVTVSS”, the “polyreactivity (PSR sort gate)” value was “low polyreactivity”. In the case of “QVQLVESGGGLVQAGGSLRLSCAASGRIFGVYAMGWYRQAPGKERELVAAIDSSDGSTYYADSVKGRFTISRDNAKNTVYLQMNSLKPEDTAVYYCAADTPAAVYGYDYWGQGTQVTVSS”, the “polyreactivity (PSR sort gate)” value is reported as “low polyreactivity”. For “QVQLVESGGGLVQAGGSLRLSCAASGRIFGVYAMGWYRQAPGKERELVAAISFSGGRTYYADSVKGRFTISRDNAKNTVYLQMNSLKPEDTAVYYCAVRGYYSFLYSTAYDYWGQGTQVTVSS”, the “polyreactivity (PSR sort gate)” value was “low polyreactivity”. With “QVQLVESGGGLVQAGGSLRLSCAASGRIFGVYAMGWYRQAPGKERELVAAISTRGGSTYYADSVKGRFTISRDNAKNTVYLQMNSLKPEDTAVYYCAAKSNNIATMDYWGQGTQVTVSS” the “polyreactivity (PSR sort gate)” value was “low polyreactivity”. With “QVQLVESGGGLVQAGGSLRLSCAASGRIFGVYGMGWYRQAPGKERELVAAISWSGATTYYADSVKGRFTISRDNAKNTVYLQMNSLKPEDTEVYYCAADFGWFYDGLAVWFIRILGVYWGQGTQVTVSS” the “polyreactivity (PSR sort gate)” value was “low polyreactivity”. In the case of “QVQLVESGGGLVQAGGSLRLSCAASGRIFGVYVMGWYRQAPGKERELVAAISWSGSHTYYADSVKGRFTISRDNAKNTVYLQMNSLKPEDTAVYYCNADSYPDYTGPGLDWYDYWGQGTQVTVSS”, the “polyreactivity (PSR sort gate)” value is reported as “low polyreactivity”. For “QVQLVESGGGLVQAGGSLRLSCAASGRIFGWYAMGWYRQAPGKERELVAAINWDGTSTDYADSVKGRFTISRDNAKNTVYLQMNSLKPEDTAVYYCAAEGHTAFLVYRVSPLQYDYWGQGTQVTVSS”, the “polyreactivity (PSR sort gate)” value was “low polyreactivity”. With “QVQLVESGGGLVQAGGSLRLSCAASGRIFGWYAMGWYRQAPGKERELVAAISGRGGSTFYADSVKGRFTISRDNEKNTVYLQMNSLKPEDTAVYYCNAYSWYGYDYWGQGTQVTVSS” the “polyreactivity (PSR sort gate)” value was “high polyreactivity”. With “QVQLVESGGGLVQAGGSLRLSCAASGRIFGWYAMGWYRQAPGKERELVAAISNDGSTNYADSVKGRFTISRDNAKNTVYLQMNSLKPEDTAVYYCAARFYRSSYGWYGYWGQGTQVTVSS” the “polyreactivity (PSR sort gate)” value was “high polyreactivity”. For “QVQLVESGGGLVQAGGSLRLSCAASGRIFGWYAMGWYRQAPGNEREFVAAITVTGGSTYYADSVKGRCTISRDNAKNTVYLQMNSLKPEDTAVYYCAADRWYTRTGFDYWGQGTQVTVSS”, the “polyreactivity (PSR sort gate)” value was “low polyreactivity”. With “QVQLVESGGGLVQAGGSLRLSCAASGRIFGWYAMGWYRQAPGNERELVAAINRGGSTNYADSVKGRFTISRDNAKNTVYLQMNSLKPEDTAVYYCAVRGVHYTAVTNIKYGYGYWGQGTQVTVSS” the “polyreactivity (PSR sort gate)” value was “high polyreactivity”.
